This assay has as its target T1, Smc6 FL (full-length Smc6) (UniProt Q12749 1-1114).
T1 construct: Smc6, full length, residues 1-1114; Vector YEpFAT4; also called FL Smc6; source: yeast, purified as previously described (StrepTrap column)
T1 sequence (looked up): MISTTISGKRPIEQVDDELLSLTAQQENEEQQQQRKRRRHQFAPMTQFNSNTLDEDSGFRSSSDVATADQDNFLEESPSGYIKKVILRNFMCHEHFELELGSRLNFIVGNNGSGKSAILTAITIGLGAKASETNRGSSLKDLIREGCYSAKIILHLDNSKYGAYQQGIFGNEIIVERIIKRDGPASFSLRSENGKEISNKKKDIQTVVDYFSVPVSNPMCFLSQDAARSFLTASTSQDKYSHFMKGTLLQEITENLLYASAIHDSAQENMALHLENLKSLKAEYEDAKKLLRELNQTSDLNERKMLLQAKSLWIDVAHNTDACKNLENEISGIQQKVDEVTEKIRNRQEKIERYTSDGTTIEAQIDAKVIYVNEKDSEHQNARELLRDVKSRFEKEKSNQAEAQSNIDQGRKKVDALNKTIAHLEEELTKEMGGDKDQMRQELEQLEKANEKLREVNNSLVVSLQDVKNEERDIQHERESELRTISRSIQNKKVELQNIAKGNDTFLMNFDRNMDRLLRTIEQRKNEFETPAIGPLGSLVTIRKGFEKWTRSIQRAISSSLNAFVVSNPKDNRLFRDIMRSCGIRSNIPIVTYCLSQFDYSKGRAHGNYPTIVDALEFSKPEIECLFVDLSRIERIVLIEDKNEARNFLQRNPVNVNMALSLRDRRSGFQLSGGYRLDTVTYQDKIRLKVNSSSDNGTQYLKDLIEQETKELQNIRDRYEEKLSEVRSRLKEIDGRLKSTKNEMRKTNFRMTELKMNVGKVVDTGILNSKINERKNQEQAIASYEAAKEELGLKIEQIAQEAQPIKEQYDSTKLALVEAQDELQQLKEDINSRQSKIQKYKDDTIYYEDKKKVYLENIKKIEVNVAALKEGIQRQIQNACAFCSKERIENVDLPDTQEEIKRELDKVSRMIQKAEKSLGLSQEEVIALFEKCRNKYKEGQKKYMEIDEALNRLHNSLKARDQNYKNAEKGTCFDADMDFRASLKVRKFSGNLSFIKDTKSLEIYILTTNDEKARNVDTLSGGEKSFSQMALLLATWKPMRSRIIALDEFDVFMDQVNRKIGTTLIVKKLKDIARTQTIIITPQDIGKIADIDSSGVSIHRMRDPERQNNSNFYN
Put plainly: SEC; StrepTrap eluates of Smc6 (5 mL) and Smc5 (150 uL) mixed, overnight at 4 °C, concentrated; complexes separated from monomeric subunits on Superose 6 10/300 in buffer G (25 mM potassium phosphate pH 8.0, 750 mM NaCl, 15% glycerol, 0.2% Tween 20, 2 mM 2-ME, 1 mM EDTA). The settings on record: both partners purified. On the technique in general: SEC sorts molecules by how far they enter the pores of the column.

B1: Smc5 FL (full-length Smc5) (natural protein, UniProt Q08204 1-1093, looked up)
chain: MTSLIDLGRYVERTHHGEDTEPRSKRVKIAKPDLSSFQPGSIIKIRLQDFVTYTLTEFNLSPSLNMIIGPNGSGKSTFVCAVCLGLAGKPEYIGRSKKVEDFIKNGQDVSKIEITLKNSPNVTDIEYIDARDETIKITRIITRSKRRSDYLINDYQVSESVVKTLVAQLNIQLDNLCQFLSQERVEEFARLKSVKLLVETIRSIDASLLDVLDELRELQGNEQSLQKDLDFKKAKIVHLRQESDKLRKSVESLRDFQNKKGEIELHSQLLPYVKVKDHKEKLNIYKEEYERAKANLRAILKDKKPFANTKKTLENQVEELTEKCSLKTDEFLKAKEKINEIFEKLNTIRDEVIKKKNQNEYYRGRTKKLQATIISTKEDFLRSQEILAQTHLPEKSVFEDIDIKRKEIINKEGEIRDLISEIDAKANAINHEMRSIQRQAESKTKSLTTTDKIGILNQDQDLKEVRDAVLMVREHPEMKDKILEPPIMTVSAINAQFAAYLAQCVDYNTSKALTVVDSDSYKLFANPILDKFKVNLRELSSADTTPPVPAETVRDLGFEGYLSDFITGDKRVMKMLCQTSKIHTIPVSRRELTPAQIKKLITPRPNGKILFKRIIHGNRLVDIKQSAYGSKQVFPTDVSIKQTNFYQGSIMSNEQKIRIENEIINLKNEYNDRKSTLDALSNQKSGYRHELSELASKNDDINREAHQLNEIRKKYTMRKSTIETLREKLDQLKREARKDVSQKIKDIDDQIQQLLLKQRHLLSKMASSMKSLKNCQKELISTQILQFEAQNMDVSMNDVIGFFNEREADLKSQYEDKKKFVKEMRDTPEFQSWMREIRSYDQDTKEKLNKVAEKYEEEGNFNLSFVQDVLDKLESEIAMVNHDESAVTILDQVTAELRELEHTVPQQSKDLETIKAKLKEDHAVLEPKLDDIVSKISARFARLFNNVGSAGAVRLEKPKDYAEWKIEIMVKFRDNAPLKKLDSHTQSGGERAVSTVLYMIALQEFTSAPFRVVDEINQGMDSRNERIVHKAMVENACAENTSQYFLITPKLLTGLHYHEKMRIHCVMAGSWIPNPSEDPKMIHFGETSNYSFD
notes: Smc5, full length, residues 1-1093; Vector YEpFAT4; also called FL Smc5; source: yeast, purified as previously described (StrepTrap column)
For the molecule B1, the binding result is “binds”.
